How the values were obtained:
[1] = test system: MDA-MB-435; test: Cytotoxicity on cell lines (Table I); assay type: cell-based; settings: 50% reduction in cell survival, mean ± 1 SD, read-out: EC50** (uM HerDox)
Method: (§1) FIGS. 17 (A)-(B) illustrates relative cell surface HER subunit levels and cytotoxicity on cell types. FIG. 17 (A) depicts a graph of relative cell surface HER subunit levels as measured by ELISA. Cells were incubated with anti-HER subunit antibodies followed by HRP-conjugated secondary antibodies using standard procedures. Relative cell numbers were measured by crystal violet staining and quantified by measuring crystal violet absorbance at 590 nm. Relative subunit levels are reported as the ELISA signal of each cell population normalized by the relative cell number, or Abs 450 run/590 nm. FIG. 17 (B) depicts toxicity to cells displaying differential HER2. Cytotoxicities from a range of HerDox doses were assessed on each cell line by metabolic assay and confirmed by crystal violet stain. CD50 values shown in log scale were determined by non-linear regression analyses of HerDox dose curves using a scientific graphing program and confirmed using a calculator. The relative HER2 level of each cell line is shown next to each CD50 value.

[2] = test system: T47D; test: Cytotoxicity on cell lines (Table I); assay type: cell-based; settings: 50% reduction in cell survival, mean ± 1 SD, read-out: EC50** (uM HerDox)
Method: as §1

[3] = test system: SKOV3; test: Cytotoxicity on cell lines (Table I); assay type: cell-based; settings: 50% reduction in cell survival, mean ± 1 SD, read-out: EC50** (uM HerDox)
Method: as §1

[4] = test system: MDA-MB-435 (HER2+) cells; test: Targeted toxicity, MTT assay, separate dishes; assay type: cell-based; settings: 0.5 uM Dox conc, 4 h exposure, by three days
Method: FIG. 7 illustrates targeted toxicity. Each cell line was exposed to HerDox (0.5 uM Dox cone), Dox alone (0.5 uM), or HerPBK10 alone for 4 h at 37° C. in complete (i.e. serum-containing) media, followed by aspiration to remove free conjugate, and addition of fresh medium while cells are grown continuously. Cell titer was determined by metabolic (i.e. MTT) assay. FIG. 7 upper panel illustrates the effect of HerDox on MDA-MB-231 (HER2−) and MDA-MB-435 (HER2+) cell survival. Relative surviving cell numbers are represented as a % of corresponding untreated cells. FIG. 7 lower panel illustrates comparison of HerDox, Dox alone, or HerPBK10 alone on HER2− and HER2+ cell survival. Relative survival (as % of untreated cells) is shown for Day 3 of treatment.
The inventors compared the effect of HerDox or Dox alone at equivalent dosages (0.5 uM with respect to Dox concentration) on HER2+ and HER2− breast cancer cells in separate dishes. By three days, HerDox reduced HER2+ cell numbers by over 75% whereas HER2− cell survival was unaffected (FIG. 7). […] These findings emphasize the importance of targeting by showing that the untargeted drug affects nontarget (i.e. HER2−) cells. Importantly, the protein carrier, HerPBK10, alone at the equivalent concentration of protein in HerDox (0.1 uM) had no effect on either cell line (FIG. 7), including a lack of proliferation induction. To test receptor targeting, the inventors used free heregulin ligand (Her or eHRG) as a competitive inhibitor. […] As a final in vitro challenge, the inventors tested whether HerDox induces toxicity specifically to HER2+ cells in a mixed culture of HER2+ and HER2− breast cancer cells. To do this, the inventors produced a HER2− cell line tagged with green fluorescent protein (GFP) for cell identification in the mixed culture (FIG. 9 (A)). […] Altogether, these findings indicate that HerDox has the capacity to preferentially target toxicity to HER2+ cells. […] Moreover, the preferential cell killing of HER2+ cells in a mixed culture of HER2+ and HER2− cells implies that after death and lysis of the target cells, the Dox released into those cells is incapable of continuing to induce toxicity to HER2− cells. To further confirm the stability of HerDox in cell culture, HerDox was recovered from culture media in separate experiments at indicated time points and electrophoresed on an agarose gel, which was then illuminated by UV to detect Dox and stained with Coomassie blue to detect HerPBK10 protein (FIG. 9 (C)). […] Co-migration of HerPBK10 bands further verified that the conjugates remained intact in the cell media.

[5] = test system: SKBR3, MDA-MB-435, MDA-MB-453, HeLa, MDA-MB-231; test: Cytotoxicity dose curves on lines displaying differential HER2 (CD50); assay type: cell-based; settings: range of HerDox doses
Method: as §1
The inventors measured cell surface levels of HER subunits on various cell lines and types described herein, as previously described levels may not reflect the actual levels in the available cells used. The inventors acquired the indicated cell lines from ATCC and the NIH/NCI and profiled these with respect to HER subunit levels (FIG. 17 (A)). […]

[6] = test system: heregulin receptors on MDA-MB-435 (HER2+) cells; test: Receptor specificity, competition with free heregulin ligand (eHRG); assay type: cell-based; settings: eHRG 10× molar excess, HerDox 0.5 uM
Method: FIG. 8 illustrates receptor specificity. MDA-MB-435 (HER2+) cells were incubated with free ligand (eHRG) at 10× molar excess of HerDox for 1 h at 4° C. Media was aspirated to remove free eHRG and fresh media containing HerDox (0.5 uM) was added to cells. Cell survival was measured by MTT assay and represented as a % of relative untreated cell numbers.
The inventors compared the effect of HerDox or Dox alone at equivalent dosages (0.5 uM with respect to Dox concentration) on HER2+ and HER2− breast cancer cells in separate dishes. By three days, HerDox reduced HER2+ cell numbers by over 75% whereas HER2− cell survival was unaffected (FIG. 7). […] These findings emphasize the importance of targeting by showing that the untargeted drug affects nontarget (i.e. HER2−) cells. Importantly, the protein carrier, HerPBK10, alone at the equivalent concentration of protein in HerDox (0.1 uM) had no effect on either cell line (FIG. 7), including a lack of proliferation induction. To test receptor targeting, the inventors used free heregulin ligand (Her or eHRG) as a competitive inhibitor. […] As a final in vitro challenge, the inventors tested whether HerDox induces toxicity specifically to HER2+ cells in a mixed culture of HER2+ and HER2− breast cancer cells. […]

[7] = test system: hearts of mice; test: Cardiac tissue histology and echocardiography; assay type: in vivo; settings: treated mice
From the text: FIGS. 12 (A)-(D) illustrates comparison of HerDox and Dox on (A) tumor growth, (B) animal weight, (C) cardiac tissue, and (D) cardiac function.
At 25 days following injections, tumors and organs were harvested and processed for histochemistry. It is established that Dox can induce acute and long-term cardiotoxicity, therefore, the inventors examined the hearts of mice treated with HerDox or Dox.

[8] = test system: U251 human glioma cells; test: Toxicity to glioma cells, cell counting; assay type: cell-based; settings: 4 hours, counted after four days
Method: FIGS. 20 (A)-(B) illustrates HerDox is toxic to glioma cells. FIG. 20 (A) depicts HER immunofluorescence on U251 human glioma cells. Images were captured using laser scanning fluorescence confocal microscopy. FIG. 20 (B) depicts a graph of HerDox vs. Dox toxicity to U251 cells. Significant differences were determined by 2-tailed tests.
U251 cells growing in dishes were incubated with either HerDox or Dox (at either 0.5 uM or 1 uM) in the culture medium for 4 hours at 37° C., 5% C02, after which fresh complete medium was added to increase the final culture volume approximately four-fold, and the cells maintained at 37° C., 5% C02 for four days. Cells were trypsinized and counted on the last day.

B1: HerDox: non-covalent complex of HerPBK10, a small double-stranded nucleic acid and intercalated Dox (conjugate)
chain: LPPRLKEMKSQESAAGSKLVLRCETSSEYSSLRFKWFKNGNELNRKNKPQNIKIQKKPGKSELRINKASLADSGEYMCKVISKLGNDSASANITIVESNEIITGMPASTEGAYVSSESPIRISVSTEGANTSSSTSTSTTGTSHLVKCAEKEKTFCVNGGECFMVKDLSNPSRYLCKCQPGFTGARCTENVPMKVQNQEKAEELYMRRAAMYEEGPPPSYESVVSAAPVAAALGSPFDAPLDPPFVPPRYLRPTGGRNSIRYSELAPLFDTTRVYLVDNKSTDVASLNYQNDHSNFLTTVIQNNDYSPGEASTQTINLDDRSHWGGDLKTILHTNMPNVNEFMFTNKFKARVMVSRLPTKDNQVELKYEWVEFTLPEGNYSETMTIDLMNNAIVEHYLKVGRQNGVLESDIGVKFDTRNFRLGFDPVTGLVMPGVYTNEAFHPDIILLPGCGVDFTHSRLSNLLGIRKRQPFQEGFRITYDDLEGGNIPALLDVDAYQASLKDDTEQGGGGAGGSNSSGSGAEENSNAAAAAMQPVEDMNDHAIRGDTFATRAEEKRAEAEAAAEAAAPAAQPEVEKPQKKPVIKPLTEDSKKRSYNLISNDSTFTQYRSWYLAYNYGDPQTGIRSWTLLCTPDVTCGSEQVYWSLPDMMQDPVTFRSTRQISNFPVVGAELLPVHSKSFYNDQAVYSQLIRQFTSLTHVFNRFPENQILARPPAPTITTVSENVPALTDHGTLPLRNSIGGVQRVTITDARRRTCPYVYKALGIVSPRVLSSRTFKKKKKKKKKK
modifications: left off: small tags and cut ends
notes: non-covalent complex of HerPBK10, a small double-stranded nucleic acid and intercalated Dox
EC50 [1]: 0.74 ± 0.07 µM | EC50 [2]: 0.64 ± 0.04 µM | EC50 [3]: 0.18 ± 0.03 µM | reduction of HER2+ cell numbers [4]: over 75% | relation of CD50 to cell surface HER2 level [5]: inversely correlates with cell surface HER2 level | cell killing by HerDox in presence of free heregulin ligand [6]: completely inhibited | echocardiogram: stroke volume, cardiac output, left ventricular internal dimension and volume [7]: no effect | toxicity relative to the equivalent concentration of Dox ([8]; 0.5 uM or 1 uM): 8-10 times | less HerDox eliciting the same toxicity as Dox [8]: 10 ×
